Laboratory results reported in US20220396632A1 (VERSEAU THERAPEUTICS, published 2022).

Tests used:
[1] = biological target: T1, 42-80 (C-terminal Lys-biotin); test: ELISA, streptavidin-immobilized biotin peptide [cont.]
T1 construct: also called Biotin PSGL-1(42-80) peptide
T1 peptide: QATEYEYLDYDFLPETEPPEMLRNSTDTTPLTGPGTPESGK
Experimental: (§1) A typical ELISA experiment involved binding of a single concentration or serially diluted mAb in assay buffer (3% BSA in PBS containing 0.05% Tween®20, pH 7.4) onto BSA blocked high binding microtiter plate half-wells (Corning Cat. #3690), which contained PSGL-1 protein or streptavidin-immobilized biotin peptide. After incubation for 45 min. at 37° C., the plate was washed 3 times with wash buffer (PBS containing 0.05% Tween®20, pH 7.4), and an appropriate HRP-conjugated secondary antibody added (25 ul/well) (HRP goat anti-mouse or anti-human IgG). After 45 min. incubation at 37° C., the plate was washed and antibody bound to plate-immobilized target was determined at A450 nm using HRP substrate (3,3′5,5′-tetramethylbenzidine (TMB)). For each antibody, duplicate values were averaged and assay background subtracted.

[2] = biological target: T2, Biotin PSGL-1(42-62) Y46A peptide (C-terminal Lys-biotin); test: ELISA; against wild-type PSGL-1 42-62
T2 peptide: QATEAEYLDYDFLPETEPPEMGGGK

[3] = biological target: T3, Biotin PSGL-1(42-62) E45A peptide (C-terminal Lys-biotin); test: ELISA; against wild-type PSGL-1 42-62
T3 peptide: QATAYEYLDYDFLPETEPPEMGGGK

[4] = biological target: T4, Biotin PSGL-1(42-62) L54A peptide (C-terminal Lys-biotin); test: ELISA; against wild-type PSGL-1 42-62
T4 peptide: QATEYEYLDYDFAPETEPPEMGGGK

[5] = biological target: T5, Biotin sY51 PSGL-1(42-62) peptide (human, sulfotyrosine at Y51; C-terminal Lys-biotin); test: ELISA, plate-bound peptide
T5 construct: also called Y51(SO3) PSGL-1(42-62)
T5 peptide: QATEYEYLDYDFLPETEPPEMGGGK

[6] = biological target: T6, Biotin PSGL-1(42-62) E56A peptide (C-terminal Lys-biotin); test: ELISA; against wild-type PSGL-1 42-62
T6 peptide: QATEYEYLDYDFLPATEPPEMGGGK

[7] = biological target: T7, Biotin PSGL-1(42-62) peptide, unmodified (human, C-terminal Lys-biotin); test: ELISA, streptavidin-immobilized biotin peptide
T7 construct: Residues 42-62 followed by GGGK-biotin; also called WT; wild-type
T7 peptide: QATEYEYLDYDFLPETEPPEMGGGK
Experimental: as §1

[8] = biological target: T1, 42-80; test: ELISA, streptavidin-immobilized biotin peptide
Experimental: as §1

[9] = biological target: T8, Biotin PSGL-1(290-310) peptide (human, N-terminal acetyl; C-terminal Lys-biotin); test: ELISA, streptavidin-immobilized biotin peptide
T8 peptide: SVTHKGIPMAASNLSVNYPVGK
Experimental: as §1

[10] = biological target: T9, Biotin PSGL-1(105-125) peptide (human, N-terminal acetyl; C-terminal Lys-biotin); test: ELISA; against WT PSGL-1(ECD)-hFc1
T9 peptide: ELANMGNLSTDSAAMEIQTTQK
Experimental: as §1

[11] = biological target: T10, PSGL-1 endogenously expressed on HL-60 cells (UniProt Q14242 42-412); test: flow cytometry on HL-60 cells; against parent 19L04
T10 construct: whole, on cells
T10 sequence (looked up): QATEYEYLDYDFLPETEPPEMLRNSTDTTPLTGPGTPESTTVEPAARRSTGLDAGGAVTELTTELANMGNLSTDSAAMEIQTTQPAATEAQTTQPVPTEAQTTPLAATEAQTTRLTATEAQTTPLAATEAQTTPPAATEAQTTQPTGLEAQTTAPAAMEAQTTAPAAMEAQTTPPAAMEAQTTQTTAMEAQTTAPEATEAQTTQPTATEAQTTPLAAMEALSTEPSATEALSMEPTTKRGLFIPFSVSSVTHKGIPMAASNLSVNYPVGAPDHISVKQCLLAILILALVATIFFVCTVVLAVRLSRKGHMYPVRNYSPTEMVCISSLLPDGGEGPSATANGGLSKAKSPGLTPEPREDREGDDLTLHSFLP
Experimental: A typical flow cytometry assay was performed by resuspending HL-60 cells in FACS buffer (5% FBS and 0.05% Sodium Azide in PBS, pH 7.2) on ice, pelleting cells by centrifugation at 500×g for 3 min, washing cells with FACS buffer, and then blocking Fc receptors on the cells with Fc block (human TruStain FcX™, BioLegend Cat. #422302) on ice for 10 min. After washing, 50,000 cells/50 ul in FACS buffer was added to each well of a 96-well round bottomed plate (Costar, Cat. #3797), and 50 ul of serially diluted (0.06 nM-1.0 uM) test or isotype control antibody was added into duplicate wells. The plate was covered and incubated on ice for 1 h. After washing, Phycoerythrin (PE) conjugated anti-human IgG secondary antibody (Abcam; Cat. #ab99825) was added to each well and the plate incubated in the dark on ice for 30 min. After washing, the cells were fixed (1% paraformaldhyde).

[12] = biological target: T11, Biotin PSGL-1(42-62) D50A peptide (C-terminal Lys-biotin); test: ELISA; against wild-type PSGL-1 42-62
T11 peptide: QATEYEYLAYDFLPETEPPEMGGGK

[13] = biological target: T12, Biotin Y46,48,51(SO3) PSGL-1(42-62) peptide (human, sulfotyrosine at Y46, Y48 and Y51; C-terminal Lys-biotin); test: ELISA, plate-bound mAb captures biotin 3 x sY peptide
T12 construct: also called fully sulfated N-terminal PSGL-1 peptide
T12 peptide: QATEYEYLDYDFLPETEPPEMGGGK
Experimental: (§2) A typical ELISA for N-terminal PSGL-1 reactive humanized mAbs binding to Y_{46,48,51}(SO₃) PSGL-1₍₄₂₋₆₂₎ involved coating high binding half-well plates (Corning Cat. #3690) with 3 ug/mL/25 ul per well of the mAbs or with an isotype hG4 control in PBS, pH 7.4, overnight at 4° C. […] Biotinylated Y_{46,48,51}(SO₃) PSGL-1₍₄₂₋₆₂₎ was added (25 ul per well) in duplicate at 2.8 uM in assay buffer (blocking buffer containing 0.05% tween 20) and serially diluted into test and control (just blocked) wells, and the plate incubated for 45 min at 37° C. The plate was washed ×3 and an appropriate HRP-conjugated streptavidin was added (25 ul per well; Jackson Immunoresearch, Cat. #016-030-084) and the plate was incubated for 45 min at 37° C. […] For each antibody, an EC50 value was determined from sigmoidal fitted peptide titration curve.

[14] = biological target: T12, Biotin Y46,48,51(SO3) PSGL-1(42-62) …; test: capture ELISA; against parent 18F02
Experimental: as §2

B1: 18K07 (antibody, V domains shown)
VH: QIQLVQSGPELKKPGETVKISCEASGYTFTTYGMNWVKQAPGKGLKWMGWINTYSGVPTYADDFQGRFAFSVETSATTAYLQINNLKNEDAATYFCARSDDTYYGFAYWGQGTLVTVSA
VL: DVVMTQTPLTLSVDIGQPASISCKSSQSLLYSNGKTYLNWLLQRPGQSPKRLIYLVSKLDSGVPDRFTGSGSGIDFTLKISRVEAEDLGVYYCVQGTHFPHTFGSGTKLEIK
notes: From mouse immunisation; only variable domains given
B1: no binding (tested: 10 nM) [1].

B2: 16L15 (antibody, V domains shown)
VH: DVKLVESGGGLVKLGGSLKLSCAASGFTFSSYYMSWVRQTPEKRLEWVATISNGGGSTYYPDSVKDRFTISRDNAKNTLYLQMSSLNSEDTAVYYCAKPLYYSNPWFAYWGQGTLVTVSA
VL: DVLLTQTPLSLPVSLGDQASISCRSSQSIVHSNGNTYLEWYLQKPGQSPKLLIYKVSNRFSGVPDRFSGSGSGTDFTLKISRVEAEDLGVYYCFQGSHVPRTFGGGTKLEIK
notes: as for B1
For B2, the EC50Ala/EC50 wt [2] was 4.7 fold and the EC50Ala/EC50 wt [3] was 5.6 fold.

B3: 9F9 (antibody, V domains shown)
VH: EVQLVETGGGLVQPKGSLKLSCAASGFTFNTNAMNWVRQAPGKGLEWVARIRSKSNNYATYYADSVKDRFTISRDDTQSMIYLQMNNLKTEDTGMYYCVRGGSYWYFDVWGAGTTVTVSS
VL: DVLMTQTPLSLPVSLGDQASISCRSSQSIVNSNGNTYLEWYLQKPGQSPKLLIYKVSNRFSGVPDRFSGSGSGTDFTLKISRVEAEDLGVYYCFQGSHVPWTFGGGTKLEIK
notes: Control anti-PSGL-1 mAb, recombinant; only variable domains given; also called 9F6
B3 gave an EC50Ala/EC50 wt [4] of 14.4 fold.

B4: 20I15 (antibody, V domains shown)
VH: EVKLVESGGGLVQPGGSLSLSCAASGFTFTDYYMSWVRQPPGKALEWLGFIRNKANGYTTEYSASVKGRFTISRDNSQSILYLQMNALRAEDSATYYCARTYLRRGYFDVWGTGTTVTVSS
VL: DIVLTQSPASLAVSLGQRATISCRASKSVSTSGYSYMHWFQQKPGQPPKLLIYLASNLESGVPARFSGSGSGTDFTLNIHPVEEEDAATYYCQHSRELPLTFGAGTKLELK
notes: From mouse immunisation; only variable domains given; also called 20115
For B4, the “fold weaker binding than to the peptide with all 3 sulfated tyrosines” value [5] was ~300 fold.

B5: 43B6 (antibody, V domains shown)
VH: EVQLQQSGPDLVKPGALVKISCKASGYSFTAYYIHWVKQSHGKSLEWIGRVNPNTGGTSYNPKFKGKAILNVDKSSSTAYMELRSLTSEDSAVYYCARSGSPYYRYDDWGQGTTLTVSS
VL: ENVLTQSPAIMSASPGEKVTMTCRASSTVNSTYLHWFQQKSGASPKLWIYGSSNLASGVPARFSGSGSGTSYSLTISSVEAEDAATYYCQQYSGYPLTFGAGTTLELK
notes: Control anti-PSGL-1 mAb, recombinant; only variable domains given; also called 43B3
Binder B5 has an EC50Ala/EC50 wt [6] of 22.3 fold.

B6: 16E17 (antibody, V domains shown)
VH: QIQLVQSGPELKKPGETVKISCKASGYAFTTYGMSWVKQAPGKGLKWMGWINTYSGVPKYADDFKGRFAFSLETSASTAYLHINNLKNEDTATYFCGRHYYGSSYFDYWGQGTTLTVSS
VL: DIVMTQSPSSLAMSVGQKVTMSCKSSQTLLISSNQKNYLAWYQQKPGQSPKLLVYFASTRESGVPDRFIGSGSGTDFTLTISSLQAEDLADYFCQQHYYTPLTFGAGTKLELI
notes: as for B1
B6: no binding (tested: 10 nM) [7]; no binding (tested: 10 nM) [8]; no binding (tested: 10 nM) [9]. The EC50/EC50WTprot [10] was ~100 fold.

B7: 19L04 (antibody, IgG4, V domains shown)
VH: QIQLVQSGPELKKPGETVKISCKASGYTFTTYGMSWVKQAPGKGLKWMGWINTYSGVPTYADDFKGRFAFSLETSASTAYLQINNLKIEDTATYFCARHYYGSHYFDYWGQGTTLTVSS
VL: DIMMTQSPSSLAMSVGQKVTLRCKSSQSLLNSSNQKNYLAWYQQKPGQSPKLLVYFASTRESGVPVRFIGSGSGTDFTLTISSMQAEDLADYFCQQHYFSPLTFGAGTKLELK
notes: as for B1
B7 was tested, and the “HL-60 EC50 (normalized)” value [11] was 1 fold.

B8: 18F02 (antibody, V domains shown)
VH: QVQLQQPGAELVKPGASVKLSCKASGYTFTSYWMHWVKQRPGQGLEWIGMIHPNSGRTNYNEKFKSKATLTVDKSSSTAYMQLSSLTSEDSAVYYCARSDYWGQGTTLTVSS
VL: DIVMTQAAFSNPVTLGTSASISCRSSKSLLHSDGITYLYWFLQRPGQSPQLLIYRMSNLASGVPDRFSGSGSGTDFTLRISRVEAEDVGVYYCAQMLEFPRTFGGGTKLEIK
notes: as for B1
In the case of B8, the EC50Ala/EC50 wt [12] is reported as 35.6 fold, the EC50 [13] is reported as 70 nM and the “N-term peptide EC50 (normalized)” value [14] is reported as 1 fold.
